Experimental data reported in patent US20250332297A1, “DLL3-SPECIFIC BINDING CONSTRUCTS AND THEIR USE IN RADIOTHERAPY” (MOLECULAR PARTNERS AG, priority 2024, published 2025).

B1: Non-binding DARPin control comprising SEQ ID NO: 22 (designed binder)
chain: DLGKKLLEAARAGQDDEVRELLKAGADVNAKDKDGYTPLHLAAREGHLEIVEVLLKAGADVNAKDKDGYTPLHLAAREGHLEIVEVLLKAGADVNAQDKSGKTPADLAADAGHEDIAEVLQKAAGSPTPTPTTPTPTPTTPTPTPTGSDLGKKLLEAARAGQDDEVRELLKAGADVNAKDKDGYTPLHLAAREGHLEIVEVLLKAGADVNAKDKDGYTPLHLAAREGHLEIVEVLLKAGADVNAQDKSGKTPADLAADAGHEDIAEVLQKAA
notes: Negative control on NCI-H82 cells; also called control DARPin
B2: Human DLL3-ECD (recombinant extracellular domain of human DLL3, Examples 11, 17 and 19) (Fc fusion)
chain: AGVFELQIHSFGPGPGPGAPRSPCSARLPCRLFFRVCLKPGLSEEAAESPCALGAALSARGPVYTEQPGAPAPDLPLPDGLLQVPFRDAWPGTFSFIIETWREELGDQIGGPAWSLLARVAGRRRLAAGGPWARDIQRAGAWELRFSYRARCEPPAVGTACTRLCRPRSAPSRCGPGLRPCAPLEDECEAPLVCRAGCSPEHGFCEQPGECRCLEGWTGPLCTVPVSTSSCLSPRGPSSATTGCLVPGPGPCDGNPCANGGSCSETPRSFECTCPRGFYGLRCEVSGVTCADGPCFNGGLCVGGADPDSAYICHCPPGFQGSNCEKRVDRCSLQPCRNGGLCLDLGHALRCRCRAGFAGPRCEHDLDDCAGRACANGGTCVEGGGAHRCSCALGFGGRDCRERADPCAARPCAHGGRCYAHFSGLVCACAPGYMGARCEF
modifications: biotinylated at the Avi-tag where immobilised (Examples 11 and 19)
notes: also called hDLL3-ECD; human ECD; not shown: Avi-tag and Fc knob into hole (order depends on the format)

Columns and labels:
[1] = biological target: T1, Human DLL3 expressed on cells (HEK293T-hDLL3, NCI-H82, SHP-77, MC38-hDLL3) (human, UniProt Q9NYJ7 27-618); assay: flow cytometry titration on NCI-H82 cells, with HSA
T1 construct: also called DLL3 endogenously expressed on human cells
T1 sequence: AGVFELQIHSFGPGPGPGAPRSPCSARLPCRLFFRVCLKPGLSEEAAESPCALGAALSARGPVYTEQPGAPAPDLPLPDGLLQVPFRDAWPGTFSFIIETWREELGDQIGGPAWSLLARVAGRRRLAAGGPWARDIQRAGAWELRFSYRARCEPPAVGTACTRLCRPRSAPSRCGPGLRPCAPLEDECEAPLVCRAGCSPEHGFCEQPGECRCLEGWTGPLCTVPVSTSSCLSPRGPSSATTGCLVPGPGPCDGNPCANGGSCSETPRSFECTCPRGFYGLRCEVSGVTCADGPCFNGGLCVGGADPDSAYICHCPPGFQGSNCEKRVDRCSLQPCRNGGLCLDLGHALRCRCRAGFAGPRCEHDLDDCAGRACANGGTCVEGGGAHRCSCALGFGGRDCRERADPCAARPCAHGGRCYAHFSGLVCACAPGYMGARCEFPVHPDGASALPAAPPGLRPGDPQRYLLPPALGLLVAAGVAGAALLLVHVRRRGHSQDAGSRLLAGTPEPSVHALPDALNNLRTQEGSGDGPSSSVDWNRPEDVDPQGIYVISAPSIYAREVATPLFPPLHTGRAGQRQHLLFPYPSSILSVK

human serum albumin = biological target: T2, human serum albumin (human, UniProt P02768 25-609); assay: SPR, HSA injected (injection 2) over immobilised hDLL3-ECD without conjugate
T2 construct: also called HSA

| Binder | binding result [1] | binding result (human serum albumin) |
| --- | --- | --- |
| B1 | no binding (tested: 500 nM) |  |
| B2 |  | no binding (tested: 1000 nM) |
